Experimental data reported in publication PMC4753422.

Target: papain (UniProt P00784)
Assay: enzyme inhibition kinetics (papain proteolysis progress curves); anti-papain activity from papain proteolysis progress curves with the fluorigenic substrate Z-Phe-Arg-methylcoumarin; apparent (said of the Cysta-tag's constant)

Chain of UniProt P00784 (P00784 134-345): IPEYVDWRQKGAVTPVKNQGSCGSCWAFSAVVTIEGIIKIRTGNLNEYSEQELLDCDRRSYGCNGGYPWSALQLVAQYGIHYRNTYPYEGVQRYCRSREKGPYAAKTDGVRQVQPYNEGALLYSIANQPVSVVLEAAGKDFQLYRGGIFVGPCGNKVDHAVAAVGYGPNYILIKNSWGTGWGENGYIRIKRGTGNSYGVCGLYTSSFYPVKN

Substance | Kd [nM]
Cysta-tag (Ala-62-(His)6-Gly-63 variant of SlCYS8) (domain or fragment) | 42
tomato multicystatin domain SlCYS8 (domain or fragment) | 43
